# Measured values reported in the PETadex activity labels (doi:10.1128/spectrum.00976-21).
# What was measured:
# [1] = substrate: pNP-C2; experiment: Proxy for plastic degradation [Specific activity]
# [2] = substrate: PET; PCL; experiment: Proxy for plastic degradation [Titratable acid release]; conditions: pH 7.5; 14 h
protein,measurement,setting,value
unnamed (protein) MVRVFGLTLLALLVPALAAPVPEDLEARQSGCADVMVVYARGTDQDSPIGDPASVGVLFRDNIKSLLGSRTFSFQGVNYAANVIGFLQGGDPAGSRQMTTDLTNVANSCPNAKIVSAGYSQGGQLVHNSAAQLTAAVRNRINAVVIFGDPKSDQAVTGIPSSNVKIICHDGDNICEGGFIVTSQHTNYQQDAPAAAQFVLSKV,Proxy for plastic degradation,[1]; pH 2,0 U/mg
same,Proxy for plastic degradation,[1]; pH 3,0 U/mg
same,Proxy for plastic degradation,[1]; pH 4,0 U/mg
same,Proxy for plastic degradation,[1]; pH 5,14500 U/mg
same,Proxy for plastic degradation,[1]; pH 6,27500 U/mg
same,Proxy for plastic degradation,[1]; pH 7,29500 U/mg
same,Proxy for plastic degradation,"[1]; pH 7.5, 0 h",17500 U/mg
same,Proxy for plastic degradation,"[1]; pH 7.5, 20 °C",0 U/mg
same,Proxy for plastic degradation,"[1]; pH 7.5, 30 °C",22500 U/mg
same,Proxy for plastic degradation,"[1]; pH 7.5, 40 °C",32500 U/mg
same,Proxy for plastic degradation,"[1]; pH 7.5, 50 °C",20000 U/mg
same,Proxy for plastic degradation,"[1]; pH 7.5, 60 °C",300 U/mg
same,Proxy for plastic degradation,"[1]; pH 7.5, 70 °C",0 U/mg
same,Proxy for plastic degradation,"[1]; pH 7.5, 80 °C",0 U/mg
same,Proxy for plastic degradation,"[1]; pH 7.5, 1 h",19400 U/mg
same,Proxy for plastic degradation,"[1]; pH 7.5, 2 h",22500 U/mg
same,Proxy for plastic degradation,"[1]; pH 7.5, 3 h",35000 U/mg
same,Proxy for plastic degradation,"[1]; pH 7.5, 4 h",25000 U/mg
same,Proxy for plastic degradation,"[1]; pH 7.5, 5 h",18500 U/mg
same,Proxy for plastic degradation,[1]; pH 8,32200 U/mg
same,Proxy for plastic degradation,[1]; pH 9,10000 U/mg
same,Proxy for plastic degradation,[2],10.9 mL
